Laboratory results as given in publication PMC3863792.

T1: bio-d-mC5a (mirror-image mouse C5a) (mouse, UniProt P06684)
T1 sequence: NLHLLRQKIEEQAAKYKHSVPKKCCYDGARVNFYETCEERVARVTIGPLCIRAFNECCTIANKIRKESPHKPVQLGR


Target: T1, bio-d-mC5a (mirror-image mouse C5a)
Experiment: competition

Binder	binding result
GCCUGAUGUGGUGUUGAAGGGUUGUUGGGUGUCGACGCACAGGC (structured_RNA) [274-C8-002]	binds
GCCUGAUGUGGUGGUGAAGGGUUGUUGGGUGUCGACGCACAGGC (structured_RNA) [274-C8-002-G14]	binds
